From the supplement of paper PMC9170038 come the findings set out here.

The data set has as its system MS2 coat protein. The data set can be described thus: apparent KD of MS2 coat protein; designed switch direction (-1 OFF switch, 1 ON switch): -1; higher = weaker reporter binding. The method in brief: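 An oligonucleotide input, 200 uM small-molecule ligand, or no input was present during titration of SNAP-549-labelled MS2 coat protein, which was doubled from 0.7 or 1.5 nM to 3 µM. Designed RNA switches had been transcribed on Illumina chips by stalled E. coli RNA polymerase. Apparent KD per design is the median over clusters of curves fitted to normalised cluster fluorescence.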

The mark [1] stands for this setting: Eterna round: R95, input ligand: FMN 200 uM.
[2] abbreviates: Eterna round: R95, input ligand: microRNA oligo, concentration not stated.
[3] abbreviates: Eterna round: R95, input ligand: none.
Setting [4] is: input ligand: microRNA oligo, concentration not stated.

As for “GAUUAUGCGAGCUUUAGGGACAUGAGGAUCACCCAUGUUCGUCUUAUUAGUCUGGGUGCGCUAACAUACCUAAAUCU [JMF 53] (puzzle: Sensor v3, turn-off variant 1)”, the “apparent KD of MS2 coat protein” value under setting [1] turned out to be 90.1 nM, the “apparent KD of MS2 coat protein” value under setting [2] came to 148 nM and the “apparent KD of MS2 coat protein” value under setting [3] stood at 175 nM.

“GGUCAGACGGUAGGAUAUUCAUAUCGAGUGACCCUUUCAUAACAUGAGGAUCACCCAUGUCGGUGGGAGAAGGGCCGUACGGCG [salish99_ExNG02_R04_008] (Eterna round: R96, puzzle: Exclusion NG 2)”: the “apparent KD of MS2 coat protein” value (input ligand: FMN 200 uM) was 41 nM, the “apparent KD of MS2 coat protein” value under setting [4] came to 31.9 nM and the “apparent KD of MS2 coat protein” value (input ligand: none) is 33.6 nM.

In the case of “UGAGAGCAAGGAUAUACGUUGGUGUAUACCCGGGUAUGUAUACAUGAGGAUCACCCAUGUAGAAGGUGCACAAA [EX2 B.1] (Eterna round: R97, puzzle: Exclusion 2)”, the “apparent KD of MS2 coat protein” value (input ligand: FMN 200 uM) is 120 nM and the “apparent KD of MS2 coat protein” value (input ligand: none) was found to be 36 nM.

Consider “AACCAGCGAGGAUAUGCUUGCGCUUGUUCUGGUUAUAAUCGACUUGAGGAUCACCCAAGUAGAAGGUGCUGGCG [EX2 #56] (Eterna round: R97, puzzle: Exclusion 2)”, for which the “apparent KD of MS2 coat protein” value (input ligand: FMN 200 uM) was determined as 28.7 nM and the “apparent KD of MS2 coat protein” value (input ligand: none) was found to be 22.5 nM.

For the sequence “ACUAGCUUUUUGCAUUUUAGGUUUGUUGCUUCGUAUGUAACAUGAGGAUCACCCAUGUAUUACUGAUGUCGUCGUUU [JR_SV3TOV2_Sub090] (Eterna round: R96, puzzle: Sensor v3, turn-off variant 2)”, the “apparent KD of MS2 coat protein” value came out at 18.5 nM (input ligand: FMN 200 uM), 15.5 nM under setting [4] and 20.3 nM (input ligand: none).

As for “GAUUAUGCGAGCUUUAGGGACAUGAGGAUCACCCAUGUUCGUCUUAUUGGUCUGAGUGCACUAACAUACCUAAAUCU [JMF 31] (puzzle: Sensor v3, turn-off variant 1)”, the “apparent KD of MS2 coat protein” value runs as follows: under setting [1], 23.1 nM; under setting [2], 37.3 nM; under setting [3], 22.8 nM.

Consider “UUCGCGGAAGGAUAUACAUGAGGAUCACCCAUGUGCUUAUGCGCAACAGCUUCGCAGUGUAGAAGGUUCAGAGU [Eternabot (L1) Solution 3] (Eterna round: R97, puzzle: Exclusion 3)”, for which the “apparent KD of MS2 coat protein” value is, setting by setting: (input ligand: FMN 200 uM) 18.9 nM; (input ligand: none) 23.4 nM.

Take “AAGAAACAUGAGGAUCACCCAUGUGAGGAUAUGAAAAAGAAAAGAAAAGAAAGAAGGUUCAGAAGGCACAAAGG [salish99-ex1_r3_027] (Eterna round: R96, puzzle: Exclusion 1)”: under setting [4], the “apparent KD of MS2 coat protein” value came out at 25.4 nM.

As to “UUAUUGUAUGUAGGAUAUGCGUAUUAUUAUUGGGCAGAAGGACAUGAGGAUCACCCAUGUAUGUUGUUGUUAUAUAUUAUAUAU [Title] (Eterna round: R96, puzzle: Exclusion NG 1)”, the “apparent KD of MS2 coat protein” value is 61 nM (input ligand: FMN 200 uM), 39.3 nM under setting [4] and 47.6 nM (input ligand: none).

On to “CACCGUUACAGAGGAUAUGACACAUGAGGAUCACCCAUGUAAUAAAUGAGAAUUUCGAAUGUAACUCAGAAGGCUGGAAUCGGC [Ostricism 77 - Jieux - Exclusion NG 2] (Eterna round: R96, puzzle: Exclusion NG 2)”, for which the “apparent KD of MS2 coat protein” value under setting [4] was determined as 22.1 nM.

Regarding “CUGAGUAGUCAGGAUAUGCUGUACAAAAGUACAGCAGAAGGGAUUACAUGAGGAUCACCCAUGUGUACUUCAUG [)mei Ex6 B20] (Eterna round: R97, puzzle: Exclusion 6)”, the “apparent KD of MS2 coat protein” value runs as follows: (input ligand: FMN 200 uM) 401 nM; (input ligand: none) 184 nM.

Regarding “CGGAUGUGAGGAUAUACAUGAGGAUCACCCAUGUGUGCCAGCUAGAUGACUGGCACUUGUAGAAGGCACGUCUG [Mat - Exclusion 3 - Mod of JL D91] (puzzle: Exclusion 3)”, under setting [2], the “apparent KD of MS2 coat protein” value stood at 11.3 nM.

With “UUUUAGAGAGGAUAUAUUUAGUGAAACAUGAGGAUCACCCAUGUAAUUAAAUGGAUGUAAAUAGAAGGCUCAUUUA [Mat - Exclusion 5 - JL mod - D6] (puzzle: Exclusion 5)”, the “apparent KD of MS2 coat protein” value is, setting by setting: under setting [1], 22.9 nM; under setting [2], 23.7 nM; under setting [3], 26.4 nM.

“AAACAGCGAGGAUAUGCAGACGCUCCUUCCUCACGUCAAGGACAUGAGGAUCACCCAUGUAGAAGGCGCACAAC [Isriteti] (Eterna round: R97, puzzle: Exclusion 2)”: the “apparent KD of MS2 coat protein” value worked out at 116 nM (input ligand: FMN 200 uM) and 76 nM (input ligand: none).

As to “AGUGUGUGGCAGGAUAUGCAAUUAAUAGGUGAAGCAGAAGGGUCUACAUGAGGAUCACCCAUGUGUGCGGUUGA [Ex6 #22] (Eterna round: R97, puzzle: Exclusion 6)”, the “apparent KD of MS2 coat protein” value by setting is: (input ligand: FMN 200 uM) 154 nM; (input ligand: none) 139 nM.

Take “AUUUUGUCAGGAUAUGACUAGUAGGACGAGAGUGCUACUACUUAGAAGGGACAUGAGGAUCACCCAUGUAUUCC [Bring Us a Shrubbery-09] (puzzle: Exclusion 4)”: the “apparent KD of MS2 coat protein” value under setting [2] was 14.1 nM.

As to “CUGAGCUGAGGAUAUACAUGAGGAUCACCCAUGUUAAGCAGCUUGCGUAAAAGCAGAUGUAGAAGGCAGUUCGG [Mod of JL 18 - Jieux - Exclusion 3] (Eterna round: R97, puzzle: Exclusion 3)”, the “apparent KD of MS2 coat protein” value stood at 18.1 nM (input ligand: FMN 200 uM) and 13.7 nM (input ligand: none).

On to “ACGCCUAUAGUGAGGAUAUUGCGGGUAGGUAUUUGCAAGAAGGCACUUGAGGAUCACCCAAGUGAAGAAGUUGC [Geusra] (Eterna round: R97, puzzle: Brourd's mod of Exclusion 4)”, for which the “apparent KD of MS2 coat protein” value reads like this: (input ligand: FMN 200 uM) 14.7 nM; (input ligand: none) 15.1 nM.

As for “AGCAUGGUAGGAUAUACGGAGCAUUAGGGUUUGUUAUGUGGACAUGAGGAUCACCCAUGUAGAAGGGCCGUGCA [Mat - Exclusion 2 - Mod of JL - D82] (puzzle: Exclusion 2)”, the “apparent KD of MS2 coat protein” value under setting [2] stood at 32.6 nM.

Take “ACGCAUUGCCUUUGGUAGUGCGUAACAUGAGGAUCACCCAUGUAGGAUAUGGUAGGCUUUGCUUACCAGAAGGACAUAAUAAAU [Mat - Exclusion NG 3 - Mod of JL - D2] (Eterna round: R96, puzzle: Exclusion NG 3)”: the “apparent KD of MS2 coat protein” value reads like this: (input ligand: FMN 200 uM) 52.7 nM; under setting [4], 25.1 nM; (input ligand: none) 28.8 nM.

On to “AAACACGGAGGAUAUGGUCACUAGGACAUGAGGAUCACCCAUGUGGGAGUGCUAGUGCUACCAGAAGGUUGAAGUC [Eternabot (L1) Solution 54] (Eterna round: R97, puzzle: Exclusion 5)”, for which the “apparent KD of MS2 coat protein” value runs as follows: (input ligand: FMN 200 uM) 66.6 nM; (input ligand: none) 76.1 nM.

Take “GUUCUUCCUGUGAGGAUAUCCAUGUGUCGGUGUGUGGAGAAGGUACAUGAGGAUCACCCAUGUCACCCGCGUUA (Eterna round: R97, puzzle: Brourd's mod of Exclusion 4)”: the “apparent KD of MS2 coat protein” value is 24.3 nM (input ligand: FMN 200 uM) and 19.2 nM (input ligand: none).

“AAUACAAGCUAUUGAUCCCACAUGAGGAUCACCCAUGUAUAUGCCGGUGACACCUGCAUGACGAUAGCUCGUCUUAU [Sensor-V1 #59] (Eterna round: R97, puzzle: Sensor, turn-off variant 1)”: the “apparent KD of MS2 coat protein” value is, setting by setting: (input ligand: FMN 200 uM) 577 nM; (input ligand: none) 758 nM.

As to “CCAUGUUAGCAGGAUAUGCUAUUAAUCUUUUAUGCAGAAGGGCUUACAUGAGGAUCACCCAUGUAUUAAGUCUU [JR_E6_Sub076] (puzzle: Exclusion 6)”, under setting [2], the “apparent KD of MS2 coat protein” value worked out at 11.9 nM.
